Assay results as given in PMC10539340, “A common human MLKL polymorphism confers resistance to negative regulation by phosphorylation” (Nature Communications, 2023).
Changes are numbered by the printed parent chain. Names may count otherwise.

B1: Recombinant full-length human MLKL (residue 2-471), wild type (natural protein, UniProt Q8NB16 2-471, looked up)
chain: ENLKHIITLGQVIHKRCEEMKYCKKQCRRLGHRVLGLIKPLEMLQDQGKRSVPSEKLTTAMNRFKAALEEANGEIEKFSNRSNICRFLTASQDKILFKDVNRKLSDVWKELSLLLQVEQRMPVSPISQGASWAQEDQQDADEDRRAFQMLRRDNEKIEASLRRLEINMKEIKETLRQYLPPKCMQEIPQEQIKEIKKEQLSGSPWILLRENEVSTLYKGEYHRAPVAIKVFKKLQAGSIAIVRQTFNKEIKTMKKFESPNILRIFGICIDETVTPPQFSIVMEYCELGTLRELLDREKDLTLGKRMVLVLGAARGLYRLHHSEAPELHGKIRSSNFLVTQGYQVKLAGFELRKTQTSMSLGTTREKTDRVKSTAYLSPQELEDVFYQYDVKSEIYSFGIVLWEIATGDIPFQGCNSEKIRKLVAVKRQQEPLGEDCPSELREIIDECRAHDPSVRPSVDEILKKLSTFSK
notes: Bacmids were made from pFastBac Htb vectors; also called MLKL^WT; hMLKL; source: Sf21 insect cells, purified (glutathione agarose, size-exclusion chromatography)
B2: Recombinant full-length human MLKL (residue 2-471) S132P (natural protein, UniProt Q8NB16 2-471, looked up)
chain: B1 chain with S131P
notes: human MLKL, residues 2-471, with the natural polymorphism p.Ser132Pro; Bacmids were made from pFastBac Htb vectors; also called MLKL^S132P; p.Ser132Pro; source: Sf21 insect cells, purified (glutathione agarose, size-exclusion chromatography)
B3: Recombinant full-length human MLKL (residue 2-471) S83D (natural protein, UniProt Q8NB16 2-471, looked up)
chain: B1 chain with S82D
notes: human MLKL, residues 2-471, with the phosphomimetic S83D; Bacmids were made from pFastBac Htb vectors; also called MLKL^S83D; source: Sf21 insect cells, purified (glutathione agarose, size-exclusion chromatography)
B4: Recombinant full-length human MLKL (residue 2-471) S83D,S132P (natural protein, UniProt Q8NB16 2-471, looked up)
chain: B1 chain with S82D, S131P
notes: human MLKL, residues 2-471, compound mutant of the phosphomimetic S83D and the polymorphism S132P; Bacmids were made from pFastBac Htb vectors; also called MLKL^(S83D, S132P); MLKL^S83D,S132P; source: Sf21 insect cells, purified (glutathione agarose, size-exclusion chromatography)

Molecular target: the molecule itself
Assay: SEC; HiLoad 16/600 Superdex 200 pg column after glutathione agarose; fractions at elution volume 55-63 ml taken as tetramers and pooled

Row | Protein | stoichiometry N
1 | B1 | 4
2 | B2 | 4
3 | B3 | 4
4 | B4 | 4
